These results are taken from article PMC5453099, “Vascular Endothelial Growth Factor (VEGF) Detection Using an Aptamer and PNA-Based Bound/Free Separation System”.

The series has as its target VEGF (vascular endothelial growth factor) (UniProt P15692-4 27-191). In words: bound/free separation: fluorescence of supernatant after capture of free aptamer on PNA beads; 10 nM aptamer, CaPNA4 beads; signal rises with 5-50 nM VEGF; detection limit 25 nM (not a Kd); TBS: 10 mM Tris-HCl pH 7.0, 100 mM NaCl; room temperature; protein and aptamer 10 min, then CaPNA beads 5 min (beads blocked with 4% skimmed milk and 4 mM biotin). The settings on record: protein: commercial; chain copies: 2; label: 5'-fluorescein; predicted three-way junction with stem-loops.

Sequence of VEGF (vascular endothelial growth factor) (P15692 other isoform, or with tags, fused parts or gaps): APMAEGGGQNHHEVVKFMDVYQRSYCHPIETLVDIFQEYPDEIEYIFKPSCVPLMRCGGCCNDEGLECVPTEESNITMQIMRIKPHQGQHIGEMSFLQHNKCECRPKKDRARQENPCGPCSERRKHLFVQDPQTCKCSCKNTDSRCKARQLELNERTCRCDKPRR

B1: VEGF aptamer (58-mer) (structured_DNA)
DNA: CTGGCCAGGTACCAAAAGATGATCTTGGGCCCGTCCGAATGGTGGGTGTTCTGGCCAG
Regarding B1, the binding result is given as “binds”.
